Reference: paper PMC5500849, “Cobamide-mediated enzymatic reductive dehalogenation via long-range electron transfer” (Nature Communications, 2017)

Test system: Oc1c(Br)cc(Br)cc1Br
Test: purified protein
Details: reduced methyl viologen 0.5 mM / Ti(III) citrate 1.4 mM, 100 mM Tris-HCl pH 7.5, 22 °C, no NH4+

PceA (PceA–Strep) (Sulfurospirillum multivorans)
Km: 158 µM | kcat: 8 s⁻¹
